{"source": "IntAct's records for PubMed 21460798", "parents": {"B1": {"name": "APC/C activator protein CDH1 (Saccharomyces cerevisiae), P53197 (parent)", "chain": "MSTNLNPFMNNTPSSSPLKGSESKRVSKRPISSSSSASLLSSPSRRSRPSTVYGDRYIPSRTDIDFNSIVSISSMASVPALNPSSTEDQVEYQKERQAHETYNTLLKNELFGEMLSKDTVGSESSIDRIKNTRPSTRGNVHAENTTRHGYELERVSTPPPEAAGLEEFSPHSTPVTPRRLFTSQQDEITRPSSNSVRGASLLTYQQRKGRRLSAASLLQSQFFDSMSPVRPDSKQLLLSPGKQFRQIAKVPYRVLDAPSLADDFYYSLIDWSSTDVLAVALGKSIFLTDNNTGDVVHLCDTENEYTSLSWIGAGSHLAVGQANGLVEIYDVMKRKCIRTLSGHIDRVACLSWNNHVLTSGSRDHRILHRDVRMPDPFFETIESHTQEVCGLKWNVADNKLASGGNDNVVHVYEGTSKSPILTFDEHKAAVKAMAWSPHKRGVLATGGGTADRRLKIWNVNTSIKMSDIDSGSQICNMVWSKNTNELVTSHGYSKYNLTLWDCNSMDPIAILKGHSFRVLHLTLSNDGTTVVSGAGDETLRYWKLFDKPKAKVQPNSLIFDAFNQIR", "partner": "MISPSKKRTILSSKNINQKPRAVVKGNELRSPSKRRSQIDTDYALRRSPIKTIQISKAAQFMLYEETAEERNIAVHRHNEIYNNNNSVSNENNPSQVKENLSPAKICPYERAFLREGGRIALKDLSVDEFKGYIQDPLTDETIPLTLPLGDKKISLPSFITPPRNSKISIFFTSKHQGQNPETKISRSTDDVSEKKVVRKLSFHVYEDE"}, "B2": {"name": "APC/C activator protein CDH1 (Saccharomyces cerevisiae), P53197 (parent)", "chain": "B1 chain"}}}
{"variants_of": "B1", "settings": "with acm1_yeast ACM1, Q08981"}
{"variant": "D536A", "effect of a mutation on the interaction": "increasing interaction"}
{"variants_of": "B2", "settings": "with hsl1_yeast HSL1, P34244"}
{"variant": "L255V", "effect of a mutation on the interaction": "disrupting interaction"}
{"variant": "G535A", "effect of a mutation on the interaction": "disrupting interaction"}
{"variant": "P258A", "effect of a mutation on the interaction": "disrupting interaction"}
{"variant": "D536A", "effect of a mutation on the interaction": "increasing interaction"}
